# Assay results reported in the nanobody polyreactivity screen of Harvey et al. (2022).
# Test: yeast display, Sf9 membrane polyspecificity reagent, FACS + sequencing; frameworks hold sequencing errors
# How it was run: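 A nanobody's polyreactivity label depends on the gate it was sorted from. Yeast display cells were stained with 10% biotinylated, detergent-solubilized Sf9 membrane reagent for 1 hour at 4 °C, enriched on streptavidin microbeads and sorted by FACS. The low and high (top ~1%) gates were set on anti-HA fluorescence for expression and streptavidin fluorescence for reagent binding.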
row,Sequence,polyreactivity (PSR sort gate)
1,QVQLVESGGGLVQAGGSLRLSCAASGRTFYDNTMGWYRQAPGKERELVAAINWSGTRTYYADSVKGRFTISRDNAKNTVYLQMNSLKPEDTAVYYCAADGPFRRTYGYWGQGTQVTVSS,low polyreactivity
2,QVQLVESGGGLVQAGGSLRLSCAASGRTFYDNTMGWYRQAPWKERELVAAISRGGSTYADSVKGRFTISRDNAKNTVYLQMNSLKPEDTAVYYCNKRSITTEYGYWGQGTQVTVSS,low polyreactivity
3,QVQLVESGGGLVQAGGSLRLSCAASGRTFYDYAMGWYRQAPGKERELVAGIRWSGGSTYYADSVKGRFTISRDNAKNTVYLQMISLKPEDTAVYYCAADWFAGVAADVEYDYWGQGTQVTVSS,low polyreactivity
4,QVQLVESGGGLVQAGGSLRLSCAASGRTFYEYTIGWYRQAPGKERELVAAITWSVGSTYYADSVKGRFTISRDIAKNTVYLQMNSLKPEETAVYDCAAYYYVWYYYWGQGTQVTVSS,low polyreactivity
5,QVQLVESGGGLVQAGGSLRLSCAASGRTFYFNAMGWYRPAPGKERELVAAITSGVRTKYADSVKGRFTISRDNAKNTVYLQMNSLKPEDTAVYYCAAGGYPSRYAPWMEYWGQGTQVTVSS,high polyreactivity
6,QVQLVESGGGLVQAGGSLRLSCAASGRTFYFYAMGWYRQAPGKERELVAAISSGASTYYADSVKGRFTISRDNAKNTVYLQMNSLKPEDTAVYYCAAEFWTQWSGYEYWGQGTQVTVSS,high polyreactivity
7,QVQLVESGGGLVQAGGSLRLSCAASGRTFYFYAMGWYRQAPGKERELVAAISWTGGITYYADSVKGRFTISRDNAKNTVYLQMNSLKPEDTAVYYCAAGYYYKVYWGQGTQVTVSS,low polyreactivity
8,QVQLVESGGGLVQAGGSLRLSCAASGRTFYFYAMGWYRQAPGKERELVAGISWRGVSTYYADSVKGRFTISRDNAKNTVYLQMNSLKPEDTAVYYCAADIGRHTDNYDPRYDYWGQGTQVTVSS,low polyreactivity
9,QVQLVESGGGLVQAGGSLRLSCAASGRTFYGNAMGWYRQAPGKERELVAAISWSGGSTYYADSVKGRFTISRDNAKNTVYLQMNSLKPEDTAVYYCNADYFAWDLMYYWGHGTQVTVSS,low polyreactivity
10,QVQLVESGGGLVQAGGSLRLSCAASGRTFYGNAMGWYSQAPGKERELVAAITDVDSTYYADSVKGRFTISRDNAKNSVYLQMNSLKPEDTAVYYCNADTSWGYPYGYWGQGTQVTVSS,low polyreactivity
11,QVQLVESGGGLVQAGGSLRLSCAASGRTFYGNTMGWYIQAPGKERELVAAITRSGGSTYYADSVKGRFTISRDNAKNTVYFQMNSLKPEDTAVYYCAASRTYYAPYGYWGQGTQVTVSS,high polyreactivity
12,QVQLVESGGGLVQAGGSLRLSCAASGRTFYGYAMGWSRPAPGKERELVAAISTGGSTSYADSVKGRFTISRDNAKNTVYLQMNSLKPEDTAVYYCAAVYYLTDWYGVWYSFDYWGQGTQVTVSS,low polyreactivity
13,QVQLVESGGGLVQAGGSLRLSCAASGRTFYGYAMGWYREAPGKERELVASISWSTGSTHYADSVKGRFTISRDNAKNTVYLQMNSLKPEDTAVYYCAAPFWRDSYVQIDYDYWGQGTQVTVSS,low polyreactivity
14,QVQLVESGGGLVQAGGSLRLSCAASGRTFYGYAMGWYRQAPAKERELVAAITWSVGRTYYADSVKGRFTISRDNAKNTVYLQMNSLKPEDTAVYYCAAQRAGLFNYWGQGTQVTVSS,low polyreactivity
15,QVQLVESGGGLVQAGGSLRLSCAASGRTFYGYAMGWYRQAPGKERELVAAITYSGGRTYYADSVKGRFTISRDNAKNTVYLQMNSLKPEDTAVYYCNTGYWYVSLGSYDYYGEYDYWGQGTQVTVSS,high polyreactivity
16,QVQLVESGGGLVQAGGSLRLSCAASGRTFYGYAMGWYRQAPGKERELVASISRDGYTNYADSVKGRFTISRDNANNTVYLQMTSLKPEDTAVYYCAADFWYYRYPIYYYSYDYWGQGTQVTVSS,low polyreactivity
17,QVQLVESGGGLVQAGGSLRLSCAASGRTFYHNAMGWYRQAPGKERELVAAITSGARTKYADSVKGRFTISRDNAKNTVYLQMNSLKPEDTAVYYCAAVYYFGKGKTFDYWGQGTQVTVSS,high polyreactivity
18,QVQLVESGGGLVQAGGSLRLSCAASGRTFYIYAMGWYRPAPGKERELVAAITYGGGRTFYADSVKGRFTISRDNAKNTVYLQMNSLKPEDTAVYYCAATVRGKRSTYDYWGQGTQVTVSS,high polyreactivity
19,QVQLVESGGGLVQAGGSLRLSCAASGRTFYIYAMGWYRQAPGKERELVAAISTTGGRTYYADSVKGRFTISRDNAKNTVYLQMNSLKPVDTAVYFCAAPARTRYDYWGQGTQVTVSS,high polyreactivity
20,QVQLVESGGGLVQAGGSLRLSCAASGRTFYIYVMGWYRQAPGKERELVAGITWRGGITYYADSVKGRFTISRDNAKNNVYLQMNSLKPEDTAVYYCAVDDLGSEYDYWGQGTQVTVSS,low polyreactivity
21,QVQLVESGGGLVQAGGSLRLSCAASGRTFYKNAMGWYRQAPGKERELVARISRGGSTNYADSVKGRFTISRDNAKNTVYLQMNSLKPEDTAVYYCAKEYGTHGKTYDYWGQGTQVTVSS,high polyreactivity

row,Sequence,polyreactivity (PSR sort gate)
1,QVQLVESGGGLVQAGGSLRLSCAASGRTFYKNAMGWYRQAPGKERELVATITSGGSTNYADSVKGRFTISRDNAKNTVYLQMNSLKPEDTAVYYCAAAKPVQFRIAQAHVGYWGQGTQVTVSS,low polyreactivity
2,QVQLVESGGGLVQAGGSLRLSCAASGRTFYKNTMGWYIQAPGKERELVATISQRGGSTYYADSVKGRFTISRDNAKNTVYLQMNSLKPEDTAVYYCNARKYTQSIHYDYWGQGTQVTVSS,high polyreactivity
3,QVQLVESGGGLVQAGGSLRLSCAASGRTFYKNTMGWYRQAPGKERELVAAIRWRGSSTYYADSVKGRFTISRDNAKNSVYLKMNSLKPEDTAVYYCAAPSSVRGKVISADYAYWGQGTQVTVSS,high polyreactivity
4,QVQLVESGGGLVQAGGSLRLSCAASGRTFYKNTMGWYRQAPGKERELVATISQRRGSTYYADSVKGRFTISRDNAKNTVYLQMNSLKTEDTAVYYCNARKYTQSIHYDYWGQGTQVTVSS,high polyreactivity
5,QVQLVESGGGLVQAGGSLRLSCAASGRTFYKYAKGWYRQAPGKERELVAAISWSGGSTYYADSVKGRFTISRDNAKNTVYLLMKSLKPEDTAVYYSNRASYPFVKPRYECWGQGTQVTVSS,high polyreactivity
6,QVQLVESGGGLVQAGGSLRLSCAASGRTFYKYAMGWSRQAPGKERELVAAISSDGTTYYADSVKGRFTISRDNAKNTVYLQMNSLKPEDTAVYYCAADPPPPFLYVSVQEYDYWGQGTQVTVSS,low polyreactivity
7,QVQLVESGGGLVQAGGSLRLSCAASGRTFYKYAMGWYIQAPGKERELVARISGRGGRTYYADSVKGRFTISRDNAKNTVYLQMNSLKPEDTEVYYCASDWVPINVKSLVVTYDYWGQGTQVTVSS,low polyreactivity
8,QVQLVESGGGLVQAGGSLRLSCAASGRTFYLNAMGWYRQAPGKERELVAAIRFSGGSTYYADSVKGRFTISRDNAKNTVLLQMNSLKPEDTAVYYCNAGPYHSLYPTVSEYGYWGQGTQVTVSS,low polyreactivity
9,QVQLVESGGGLVQAGGSLRLSCAASGRTFYLNTMGWYRQAPGKERELVAGITSSGTRTYYADSVKGRFTISRDNAKNTVYLQMNSLKPEDTAVYYSAKTWGGQIRPRYRYGSGYDYWGQGTQVTVSS,high polyreactivity
10,QVQLVESGGGLVQAGGSLRLSCAASGRTFYLYAMGWYRQAPGKERELVAAINTNGARTYYADSVKGRFTISRDHAKNTVYLQMNSLIPEDTAVYYCNADAYRVIANWIYDYWGQGTQVTVSS,low polyreactivity
11,QVQLVESGGGLVQAGGSLRLSCAASGRTFYLYGMGWYRQAPGKERELVAAITITDSTNYADSVKGRFTISRDNAKNTVYLQMNSLKPEDTAVYYCAKRRYYSTPRWGSSTYDYWGQGTQVTVSS,low polyreactivity
12,QVQLVESGGGLVQAGGSLRLSCAASGRTFYNAMGWYRQAPGKERELVAAITTGGGTKYADSVKGRFTISRDNAKNTVYLQMNSLKPEDTAVYYCNTDEWYHFYHGAHKYDYWGQGTQVTVSS,low polyreactivity
13,QVQLVESGGGLVQAGGSLRLSCAASGRTFYNNAMGWYRQAPGKERELVAVISRGGTTYYPDSVKGRFTISRDNAKNTVYLQMNSLKAEDTSVYYCAKQVPSGDSSSQMGSWGQGTQVTVSS,low polyreactivity
14,QVQLVESGGGLVQAGGSLRLSCAASGRTFYNYAMGGYRQAPGKERELVAAISWSDGTTYYADSVKGRFTISRDNAKNTVYLQMNSLKPEDTAVYYCAAEFESSFALGFYYWGQGTQVTVSS,high polyreactivity
15,QVQLVESGGGLVQAGGSLRLSCAASGRTFYPNVMGWYRQAPGKERELVAAITSGGSTYYADSVKGRFTISRDNAKNTVALEMNSQKPEDTAVYYCAVAYAGGGSRKYDYWGQGTQVTVSS,low polyreactivity
16,QVQLVESGGGLVQAGGSLRLSCAASGRTFYPYAMGWSRQAPGKERELVAAISWNGGRTYYADSVKGRFTISRDNAKNTVYLQMNSLKPEDTAVYYCAADTAYYDFDYWGQGTQVTVSS,low polyreactivity
17,QVQLVESGGGLVQAGGSLRLSCAASGRTFYPYAMGWYRQAPGKERELVATITWSGTTTYYADSVKGRFTISRDNAKNTVYLQMNSLKPEDTAVYYCAADVWEVVTPYGTIDDDYWGQGTQVTVSS,high polyreactivity
18,QVQLVESGGGLVQAGGSLRLSCAASGRTFYPYAMGWYRQAPGTERELVAAISRSGGGTYYADSVKGRFTISRDNAKNTVYLQMNSLKPEDTAVYYCAAARYLSIYNYWGQGTQVTVSS,low polyreactivity
19,QVQLVESGGGLVQAGGSLRLSCAASGRTFYPYVMGWYRQAPGKERELVARIRWSGSSTYYADSVKGRFTISRDNAKNTVYLQMNSLKPEDTAVYYCNARPSWYVFGSSVHSGMGYWGQGTQVTVSS,high polyreactivity
20,QVQLVESGGGLVQAGGSLRLSCAASGRTFYPYVMGWYRQAPGKERELVATISWSGGSTYYADSVKGRFTISRDNAKNTVYLQMNSLKPEDTAVYYCAALWPYGYWGQGTQVTVSS,low polyreactivity
